Paper PMC2148189 (The Journal of Cell Biology, 1999)

T1: GST–ponsin-2-F (the full length) (mouse, UniProt Q62417-3 1-724)
T1 sequence (looked up): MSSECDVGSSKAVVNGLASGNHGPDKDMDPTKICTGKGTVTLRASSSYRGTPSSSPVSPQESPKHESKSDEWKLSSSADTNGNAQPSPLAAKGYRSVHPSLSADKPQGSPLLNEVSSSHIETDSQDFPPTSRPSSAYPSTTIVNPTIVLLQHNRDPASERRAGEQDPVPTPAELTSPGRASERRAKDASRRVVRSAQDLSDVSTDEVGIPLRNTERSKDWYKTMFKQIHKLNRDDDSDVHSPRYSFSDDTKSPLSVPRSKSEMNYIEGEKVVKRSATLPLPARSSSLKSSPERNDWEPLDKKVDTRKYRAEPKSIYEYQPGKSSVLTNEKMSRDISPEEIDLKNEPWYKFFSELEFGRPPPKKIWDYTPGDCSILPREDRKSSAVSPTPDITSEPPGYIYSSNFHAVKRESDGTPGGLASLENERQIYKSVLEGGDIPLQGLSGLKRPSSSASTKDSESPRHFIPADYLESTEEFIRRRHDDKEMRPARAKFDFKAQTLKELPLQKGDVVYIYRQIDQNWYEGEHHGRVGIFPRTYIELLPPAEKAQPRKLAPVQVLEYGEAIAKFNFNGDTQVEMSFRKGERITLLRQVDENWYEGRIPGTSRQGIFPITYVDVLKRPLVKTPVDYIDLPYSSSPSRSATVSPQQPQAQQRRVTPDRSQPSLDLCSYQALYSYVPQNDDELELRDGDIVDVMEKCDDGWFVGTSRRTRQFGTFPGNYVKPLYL

T2: GST–ponsin-2-C (the COOH-terminal half) (mouse, UniProt Q62417-3 401-724)
T2 sequence (looked up): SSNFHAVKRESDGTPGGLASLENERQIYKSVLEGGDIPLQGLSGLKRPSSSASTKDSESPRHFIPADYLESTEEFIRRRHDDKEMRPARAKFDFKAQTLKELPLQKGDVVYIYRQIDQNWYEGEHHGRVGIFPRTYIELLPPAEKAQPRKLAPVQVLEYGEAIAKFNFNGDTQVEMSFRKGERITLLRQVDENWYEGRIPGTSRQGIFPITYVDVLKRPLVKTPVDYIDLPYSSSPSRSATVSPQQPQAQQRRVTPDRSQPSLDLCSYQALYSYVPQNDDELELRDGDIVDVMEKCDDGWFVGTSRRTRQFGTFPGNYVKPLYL

B1: His6–l-afadin-C199 (domain or fragment, UniProt O35889-1 1631-1829, looked up)
chain: DRVRQEEDGRHQEEERVKRDAEEKRRQEEGYYSRLEAERRRQHEEAARRLLEPEEPGLSRPPLPQDYEPPSQSSAPSAPPPPPQRNASYLKTQVLSPDSLFTAKFVAYDDDDEEENYVPAGPNSYSGSAGTTAGTYDAPRDTREKLSRSQDADLPGSSGAPENLTFRERQRLFSQGQDVSDKVKASRKLTELENELNTK
B2: GST–ponsin-2-SH3(2+3) (the second and third SH3 domains) (domain or fragment, mouse, UniProt Q62417-3 543-724, looked up)
chain: AEKAQPRKLAPVQVLEYGEAIAKFNFNGDTQVEMSFRKGERITLLRQVDENWYEGRIPGTSRQGIFPITYVDVLKRPLVKTPVDYIDLPYSSSPSRSATVSPQQPQAQQRRVTPDRSQPSLDLCSYQALYSYVPQNDDELELRDGDIVDVMEKCDDGWFVGTSRRTRQFGTFPGNYVKPLYL

Columns and labels:
Assay in all cases: pull-down
[1] = target: T1, GST–ponsin-2-F (the full length)
[2] = target: T2, GST–ponsin-2-C (the COOH-terminal half)
His6–l-afadin-C199 = target: B1

| binding result [1] | binding result [2] | binding result (His6–l-afadin-C199) | Binder |
| --- | --- | --- | --- |
| binds | binds | – | B1 |
| – | – | binds | B2 |
